{"source": "paper PMC12390807", "about": "“Developing and validating anti-ADA2 single-chain antibodies coupled to alkaline phosphatase for diagnosing pleural tuberculosis” (Frontiers in Immunology, 2025)", "binders": {"B1": {"name": "H11 anti-ADA2 scFv-AP (single-chain antibody fused with bacterial alkaline phosphatase) (scFv, V domains shown)", "VH": "EVQLLESGGGLVQPGGSLRLSCAASGFTFSSYSMHWVRQAPGKGLEWVSSIWGVNGETDYADSVKGRFTISRDNSKNTLYLQMNSLRAEDTAVYYCAADWSLDYWGQGTLVTVSS", "VL": "EIVLTQSPGTLSLSPGERATLSCRASQSVSSSYLAWYQQKPGQAPRLLIYGASSRATGVPDRFSGSGSGTDFTLTISRLEPEDFAVYYCQQSSSYPWTFGQGTKVEIK", "notes": "The clone name H11 appears only in the ELISA methods; also called H11 scFv-AP; sc-anti-ADA2 alkaline phosphatase fusion protein; source: E. coli XL1-Blue (pAK600H vector), purified (Nickel Sepharose HiTrap / Ni-NTA Chelating Sepharose)"}}, "target": "T1, human adenosine deaminase 2 (ADA2) (Homo sapiens, UniProt Q9NZK5)", "T1 construct": "adenosine deaminase 2 (ADA2), human, recombinant, produced in S2 insect cells; also called hADA2; recombinant ADA2", "T1 sequence (Q9NZK5 30-511)": "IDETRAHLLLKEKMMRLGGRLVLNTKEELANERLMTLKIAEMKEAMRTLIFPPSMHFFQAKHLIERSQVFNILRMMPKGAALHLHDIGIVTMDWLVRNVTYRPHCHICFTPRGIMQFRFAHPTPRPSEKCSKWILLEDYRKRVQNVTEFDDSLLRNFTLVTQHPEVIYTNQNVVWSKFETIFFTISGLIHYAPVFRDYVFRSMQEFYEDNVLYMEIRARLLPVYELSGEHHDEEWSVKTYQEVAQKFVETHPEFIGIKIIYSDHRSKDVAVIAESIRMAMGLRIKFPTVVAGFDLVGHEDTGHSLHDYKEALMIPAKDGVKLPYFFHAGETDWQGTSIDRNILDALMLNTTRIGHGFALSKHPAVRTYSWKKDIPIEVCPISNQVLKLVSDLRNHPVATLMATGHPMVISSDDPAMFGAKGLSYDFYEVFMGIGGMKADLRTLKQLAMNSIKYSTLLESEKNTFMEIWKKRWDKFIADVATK", "experiment": "BLI; apparent dissociation constant; which partner was immobilised and the conditions are not told", "conditions": "both partners purified", "data": [{"binder": "B1", "values": [{"measurement": "Kd", "result": "< 10", "unit": "nM"}]}]}
